From patent US20100272709A1 (GENERAL HOSPITAL, published 2010)

Assays:
[1] = biological target: wild type dynamin (dynWT; recombinant dynamin 1) (UniProt Q05193); experiment: FLIM/FRET in fixed podocytes; donor GTPase-a488, acceptor Hudy1-a568; self-assembly
[2] = biological target: wild type dynamin (dynWT; recombinant dynamin 1) (UniProt Q05193); experiment: FLIM/FRET in fixed podocytes treated with LPS; donor GTPase-Alexa488, acceptor Hudy1-Alexa568; self-assembly
[3] = biological target: wild type dynamin (dynWT; recombinant dynamin 1) (UniProt Q05193); experiment: FLIM/FRET in fixed podocytes treated with cytochalasin D; donor GTPase-a488, acceptor Hudy1-a568; self-assembly
[4] = biological target: wild type dynamin (dynWT; recombinant dynamin 1) (UniProt Q05193); experiment: FLIM/FRET in fixed podocytes treated with LPS + E64; donor GTPase-Alexa488, acceptor Hudy1-Alexa568; self-assembly
[5] = biological target: wild type dynamin (dynWT; recombinant dynamin 1) (UniProt Q05193); experiment: FLIM/FRET in fixed podocytes; donor GTPase-alexa488, acceptor hudy1-alexa568; the value differs from the WT row of Table 1
[6] = biological target: wild type dynamin (dynWT; recombinant dynamin 1) (UniProt Q05193); experiment: FLIM/FRET in fixed podocytes treated with colchicine; donor GTPase-a488, acceptor Hudy1-a568; variant not given, taken as WT
[7] = biological target: wild type dynamin (dynWT; recombinant dynamin 1) (UniProt Q05193); experiment: FLIM/FRET in fixed podocytes treated with jasplakinolide; donor GTPase-a488, acceptor Hudy1-a568; variant not given, taken as WT
[8] = biological target: wild type dynamin (dynWT; recombinant dynamin 1) (UniProt Q05193); experiment: FLIM/FRET in fixed podocytes expressing the variant; donor GTPase-Alexa488, acceptor Hudy1-Alexa568; shorter lifetime = dynamin higher order self-assembly
[9] = biological target: wild type dynamin (dynWT; recombinant dynamin 1) (UniProt Q05193); experiment: FLIM/FRET in fixed podocytes; donor GTPase-a488, acceptor GTPase-a568 (same antibody on both); the text says no FRET signal was detected with this antibody pair
[10] = biological target: dynK694A (assembly impaired, dominant activating dynamin mutant) (UniProt Q05193); experiment: FLIM/FRET in fixed podocytes; donor GTPase-a488, acceptor Hudy1-a568; self-assembly
[11] = biological target: dynK694A (assembly impaired, dominant activating dynamin mutant) (UniProt Q05193); experiment: FLIM/FRET in fixed podocytes treated with cytochalasin D; donor GTPase-a488, acceptor Hudy1-a568; self-assembly
[12] = biological target: dynK694A (assembly impaired, dominant activating dynamin mutant) (UniProt Q05193); experiment: FLIM/FRET in fixed podocytes expressing the variant; donor GTPase-Alexa488, acceptor Hudy1-Alexa568; self-assembly
EYFP-dynI690K fusion = biological target: T1, EYFP-dynI690K fusion (UniProt Q05193 1-864); experiment: FLIM/FRET in live COS cells; lifetime of the ECFP donor; self-assembly
T1 construct: it is read as I690K; also called YFP-1690K; not shown: EYFP tag
T1 sequence (looked up): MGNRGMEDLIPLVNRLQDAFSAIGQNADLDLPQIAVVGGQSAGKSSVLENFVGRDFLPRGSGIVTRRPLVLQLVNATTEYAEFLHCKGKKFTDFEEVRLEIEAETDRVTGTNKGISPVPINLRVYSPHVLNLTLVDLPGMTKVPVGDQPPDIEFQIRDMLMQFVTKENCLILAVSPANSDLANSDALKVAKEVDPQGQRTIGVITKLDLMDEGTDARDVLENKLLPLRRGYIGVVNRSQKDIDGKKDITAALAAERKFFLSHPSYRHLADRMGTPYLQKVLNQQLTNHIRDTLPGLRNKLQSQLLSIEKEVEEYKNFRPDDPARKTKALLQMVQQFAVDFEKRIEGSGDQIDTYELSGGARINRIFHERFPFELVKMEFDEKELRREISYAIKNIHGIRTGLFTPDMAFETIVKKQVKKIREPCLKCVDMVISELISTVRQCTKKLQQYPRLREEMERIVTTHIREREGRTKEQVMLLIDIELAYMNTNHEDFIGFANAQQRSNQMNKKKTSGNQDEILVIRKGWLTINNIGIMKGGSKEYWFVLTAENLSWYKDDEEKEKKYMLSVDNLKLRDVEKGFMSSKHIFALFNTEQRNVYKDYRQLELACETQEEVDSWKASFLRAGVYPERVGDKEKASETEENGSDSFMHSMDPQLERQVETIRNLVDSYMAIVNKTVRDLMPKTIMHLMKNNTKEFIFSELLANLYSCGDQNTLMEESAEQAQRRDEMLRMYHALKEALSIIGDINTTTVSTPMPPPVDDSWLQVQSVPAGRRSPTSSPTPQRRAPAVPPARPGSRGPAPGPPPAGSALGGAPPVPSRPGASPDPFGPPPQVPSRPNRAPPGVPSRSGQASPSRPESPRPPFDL

[13] = biological target: T2, EYFP-dynamin wild type fusion (UniProt Q05193 1-864); experiment: as above
T2 construct: also called YFP-WT; EYFP-dynWT; not shown: EYFP tag
T2 sequence (looked up): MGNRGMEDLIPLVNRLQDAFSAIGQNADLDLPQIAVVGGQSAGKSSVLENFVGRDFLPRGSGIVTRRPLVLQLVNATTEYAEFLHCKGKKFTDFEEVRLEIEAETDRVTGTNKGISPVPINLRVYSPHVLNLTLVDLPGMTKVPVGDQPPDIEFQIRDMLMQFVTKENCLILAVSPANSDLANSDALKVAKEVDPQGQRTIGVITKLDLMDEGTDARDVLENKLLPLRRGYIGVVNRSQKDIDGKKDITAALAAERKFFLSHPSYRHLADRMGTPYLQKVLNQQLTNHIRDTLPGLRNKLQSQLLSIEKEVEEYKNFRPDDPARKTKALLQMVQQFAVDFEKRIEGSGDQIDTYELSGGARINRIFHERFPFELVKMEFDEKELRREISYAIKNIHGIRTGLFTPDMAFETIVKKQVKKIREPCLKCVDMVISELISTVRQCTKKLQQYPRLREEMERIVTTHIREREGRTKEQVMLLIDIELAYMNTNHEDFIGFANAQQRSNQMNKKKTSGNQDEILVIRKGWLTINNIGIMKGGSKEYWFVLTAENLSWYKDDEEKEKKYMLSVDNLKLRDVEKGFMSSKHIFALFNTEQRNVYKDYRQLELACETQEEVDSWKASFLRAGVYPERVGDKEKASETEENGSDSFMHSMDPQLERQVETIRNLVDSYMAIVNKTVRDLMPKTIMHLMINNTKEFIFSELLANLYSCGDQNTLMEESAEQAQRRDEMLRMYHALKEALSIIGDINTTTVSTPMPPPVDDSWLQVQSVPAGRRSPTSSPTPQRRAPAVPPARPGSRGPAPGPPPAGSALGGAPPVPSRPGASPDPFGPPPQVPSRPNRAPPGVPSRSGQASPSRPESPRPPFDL

## wild type dynamin (dynWT; recombinant dynamin 1) (from UniProt Q05193 1-864) (enzyme)
[1]
  Mean Lifetime (γ1): 2250 ps
[2]
  Mean Lifetime (γ1): 2560 ps
[3]
  Mean Lifetime (γ1): 2030 ps
[4]
  Mean Lifetime (γ1): 2280 ps
[5]
  lifetime t1: 2270 ps
[6]
  Mean Lifetime (γ1): 2300 ps
[7]
  Mean Lifetime (γ1): 2250 ps
[8]
  Mean Lifetime (γ1): 2210 ps
[9]
  Mean Lifetime (γ1): 2420 ps

B1: dynK694A (assembly impaired, dominant activating dynamin mutant) (enzyme, UniProt Q05193 1-864, looked up)
chain: MGNRGMEDLIPLVNRLQDAFSAIGQNADLDLPQIAVVGGQSAGKSSVLENFVGRDFLPRGSGIVTRRPLVLQLVNATTEYAEFLHCKGKKFTDFEEVRLEIEAETDRVTGTNKGISPVPINLRVYSPHVLNLTLVDLPGMTKVPVGDQPPDIEFQIRDMLMQFVTKENCLILAVSPANSDLANSDALKVAKEVDPQGQRTIGVITKLDLMDEGTDARDVLENKLLPLRRGYIGVVNRSQKDIDGKKDITAALAAERKFFLSHPSYRHLADRMGTPYLQKVLNQQLTNHIRDTLPGLRNKLQSQLLSIEKEVEEYKNFRPDDPARKTKALLQMVQQFAVDFEKRIEGSGDQIDTYELSGGARINRIFHERFPFELVKMEFDEKELRREISYAIKNIHGIRTGLFTPDMAFETIVKKQVKKIREPCLKCVDMVISELISTVRQCTKKLQQYPRLREEMERIVTTHIREREGRTKEQVMLLIDIELAYMNTNHEDFIGFANAQQRSNQMNKKKTSGNQDEILVIRKGWLTINNIGIMKGGSKEYWFVLTAENLSWYKDDEEKEKKYMLSVDNLKLRDVEKGFMSSKHIFALFNTEQRNVYKDYRQLELACETQEEVDSWKASFLRAGVYPERVGDKEKASETEENGSDSFMHSMDPQLERQVETIRNLVDSYMAIVNKTVRDLMPKTIMHLMINNTAEFIFSELLANLYSCGDQNTLMEESAEQAQRRDEMLRMYHALKEALSIIGDINTTTVSTPMPPPVDDSWLQVQSVPAGRRSPTSSPTPQRRAPAVPPARPGSRGPAPGPPPAGSALGGAPPVPSRPGASPDPFGPPPQVPSRPNRAPPGVPSRSGQASPSRPESPRPPFDL
[10]
  Mean Lifetime (γ1): 2410 ps
[11]
  Mean Lifetime (γ1): 2050 ps
[12]
  Mean Lifetime (γ1): 2410 ps

B2: ECFP-dynI690K fusion (other, UniProt Q05193 1-864, looked up)
chain: MGNRGMEDLIPLVNRLQDAFSAIGQNADLDLPQIAVVGGQSAGKSSVLENFVGRDFLPRGSGIVTRRPLVLQLVNATTEYAEFLHCKGKKFTDFEEVRLEIEAETDRVTGTNKGISPVPINLRVYSPHVLNLTLVDLPGMTKVPVGDQPPDIEFQIRDMLMQFVTKENCLILAVSPANSDLANSDALKVAKEVDPQGQRTIGVITKLDLMDEGTDARDVLENKLLPLRRGYIGVVNRSQKDIDGKKDITAALAAERKFFLSHPSYRHLADRMGTPYLQKVLNQQLTNHIRDTLPGLRNKLQSQLLSIEKEVEEYKNFRPDDPARKTKALLQMVQQFAVDFEKRIEGSGDQIDTYELSGGARINRIFHERFPFELVKMEFDEKELRREISYAIKNIHGIRTGLFTPDMAFETIVKKQVKKIREPCLKCVDMVISELISTVRQCTKKLQQYPRLREEMERIVTTHIREREGRTKEQVMLLIDIELAYMNTNHEDFIGFANAQQRSNQMNKKKTSGNQDEILVIRKGWLTINNIGIMKGGSKEYWFVLTAENLSWYKDDEEKEKKYMLSVDNLKLRDVEKGFMSSKHIFALFNTEQRNVYKDYRQLELACETQEEVDSWKASFLRAGVYPERVGDKEKASETEENGSDSFMHSMDPQLERQVETIRNLVDSYMAIVNKTVRDLMPKTIMHLMKNNTKEFIFSELLANLYSCGDQNTLMEESAEQAQRRDEMLRMYHALKEALSIIGDINTTTVSTPMPPPVDDSWLQVQSVPAGRRSPTSSPTPQRRAPAVPPARPGSRGPAPGPPPAGSALGGAPPVPSRPGASPDPFGPPPQVPSRPNRAPPGVPSRSGQASPSRPESPRPPFDL
notes: it is read as I690K; also called CFP-1690K; not shown: ECFP tag
EYFP-dynI690K fusion
  Mean Lifetime (γ1) ps: 2070 ps
[13]
  Mean Lifetime (γ1) ps: 1110 ps
